# From publication PMC5395669
# Columns and labels:
# [1] = target: DnaK (added to the in vitro Co-IP reactions) (UniProt P0A6Y8); assay: Co-IP (amylose magnetic beads, Western blot with α-DnaK); conditions: 1 µM RctB, 1 µM DnaJ, 2 µM DnaK, 100 µM ATP, buffer A pH 7.4, 4°C
# [2] = target: MBP-RctB S313P (Vibrio cholerae); assay: AUC
# [3] = target: MBP-tagged RctB (wild type) (Vibrio cholerae (N16961 DNA as template)); assay: AUC
# [4] = target: MBP-RctB F311P (Vibrio cholerae); assay: AUC
# [5] = target: MBP-RctB K312P (Vibrio cholerae); assay: AUC
# [6] = target: RctB145–470 tryptic fragment (Vibrio cholerae); assay: AUC; sedimentation velocity, 50,000 rpm, 20°C; 20 mM Tris pH 8.0, 300 mM NaCl, 1 mM TCEP, 1 mM EDTA, 5 mM MgCl2; multiple concentrations (Fig. S4A)
# [7] = target: MBP-RctB F316P (Vibrio cholerae); assay: AUC
substance,measurement,setting,value
MBP-tagged RctB (wild type) L129A; V130A; T131A; E132A; S133A; V134A; K135A,ratio to parent,[1],0.9
MBP-tagged RctB (wild type) S143A; K144A; L146A; Q148A; T149A,ratio to parent,[1],0.8
MBP-RctB S313P (natural protein),stoichiometry N,[2],2
MBP-tagged RctB (wild type) (natural protein),stoichiometry N,[3],2
MBP-RctB F311P (natural protein),stoichiometry N,[4],2
MBP-tagged RctB (wild type) H157A; E158A; H159A; G160A; L161A; N162A; T163A,ratio to parent,[1],0.3
MBP-tagged RctB (wild type) Q150A; V151A; N152A; Q153A; R154A; L155A; L156A,ratio to parent,[1],0.4
MBP-tagged RctB (wild type) P164A; P165A; M167A; K168A; D169A; E170A,ratio to parent,[1],0.6
MBP-tagged RctB (wild type) Q136A; N137A; E138A; K139A; Q140A; K141A; R142A,ratio to parent,[1],0.8
MBP-RctB K312P (natural protein),stoichiometry N,[5],2
RctB145–470 tryptic fragment (domain or fragment),stoichiometry N,[6],2
MBP-RctB F316P (natural protein),stoichiometry N,[7],2
